Data on 1 molecule can be found in patent US20210292392A1 (TSB THERAPEUTICS BEIJING, published 2021).

Assay [1] addresses T1, full length spike of MERS-CoV (MERS-CoV, UniProt K9N5Q8 18-1353).
T1 construct: whole, on cells
Briefly: FACS, HEK 293T cells expressing the full length spike, anti-human IgG Fc PE. Background: Flow cytometry measures light scatter and fluorescence of single cells or particles in a stream.

Assay [2] addresses T2, full length spike of SARS-CoV (SARS-CoV, UniProt P59594 14-1255).
T2 construct: whole, on cells
The description is as above.

Assay [3] addresses recombinant RBD of the spike protein of SARS-CoV (SARS-CoV, UniProt P59594 306-527). Nature of the assay: SPR, RBD on CM5 chip. On the technique in general: SPR reads the build-up and loss of mass on a sensor chip optically.

T1 sequence (K9N5Q8 18-751, chain 1 of 2): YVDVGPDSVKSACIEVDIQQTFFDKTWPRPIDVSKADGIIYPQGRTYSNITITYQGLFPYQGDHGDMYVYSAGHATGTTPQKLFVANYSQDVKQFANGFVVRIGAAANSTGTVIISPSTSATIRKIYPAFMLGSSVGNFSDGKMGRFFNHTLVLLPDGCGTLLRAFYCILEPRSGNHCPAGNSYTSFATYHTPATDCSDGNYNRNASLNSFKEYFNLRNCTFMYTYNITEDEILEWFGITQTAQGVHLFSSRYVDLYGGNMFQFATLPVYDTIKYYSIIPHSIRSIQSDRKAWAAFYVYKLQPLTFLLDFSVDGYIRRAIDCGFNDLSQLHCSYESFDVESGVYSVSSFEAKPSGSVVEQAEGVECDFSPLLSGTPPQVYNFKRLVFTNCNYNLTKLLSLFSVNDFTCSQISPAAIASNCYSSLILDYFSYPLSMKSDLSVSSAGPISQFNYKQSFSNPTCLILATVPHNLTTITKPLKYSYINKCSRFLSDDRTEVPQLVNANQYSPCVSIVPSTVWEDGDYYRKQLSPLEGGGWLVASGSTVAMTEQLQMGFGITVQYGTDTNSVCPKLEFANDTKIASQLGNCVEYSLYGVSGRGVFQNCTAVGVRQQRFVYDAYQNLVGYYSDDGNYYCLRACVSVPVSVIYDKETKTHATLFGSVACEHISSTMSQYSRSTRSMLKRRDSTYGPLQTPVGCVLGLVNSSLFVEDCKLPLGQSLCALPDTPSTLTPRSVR
T1 sequence (K9N5Q8 752-1353, chain 2 of 2): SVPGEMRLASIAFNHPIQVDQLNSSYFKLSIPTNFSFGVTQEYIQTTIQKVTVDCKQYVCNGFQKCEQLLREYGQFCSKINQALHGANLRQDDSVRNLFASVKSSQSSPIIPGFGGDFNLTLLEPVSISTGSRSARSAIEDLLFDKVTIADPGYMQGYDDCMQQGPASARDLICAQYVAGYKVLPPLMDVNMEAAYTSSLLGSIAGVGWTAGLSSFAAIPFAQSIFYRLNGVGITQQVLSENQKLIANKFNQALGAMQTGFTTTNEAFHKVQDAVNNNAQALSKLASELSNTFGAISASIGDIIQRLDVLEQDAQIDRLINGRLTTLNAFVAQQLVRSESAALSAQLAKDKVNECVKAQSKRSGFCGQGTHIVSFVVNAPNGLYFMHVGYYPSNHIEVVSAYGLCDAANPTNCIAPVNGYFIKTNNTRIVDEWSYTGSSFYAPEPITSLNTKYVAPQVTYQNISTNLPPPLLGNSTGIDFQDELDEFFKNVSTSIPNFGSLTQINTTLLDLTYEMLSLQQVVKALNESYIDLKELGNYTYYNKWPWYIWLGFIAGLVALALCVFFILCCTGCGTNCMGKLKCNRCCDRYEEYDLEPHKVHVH

B1: P1A-1C10 (antibody, V domains shown)
VH: QVQLVQSGAEVKNPGSSVKVSCKAGGGTSSFYDINWVRQAPGQGLEWIGKIIPRLDIADYAQKSQGRVTITADKSTSTVYLELSSLKSDDTAVYFCARGRPGSEWAYGPFDLWGQGTLVTVSS
VL: DIQMTQSPSTLSASVGDRVTITCRASQSSRAWLAWYQQKPGKAPKLLISKASSLESGVPSRFSGSGYGTEFTLTISSLQPDDSATYYCHQYNSSPFTFGPGTKVQIKR
notes: human IgG1, kappa
For B1, the binding result in assay [1] is reported as “no binding (tested: 20 µg/ml)”; in assay [2], “no binding (tested: 20 µg/ml)”; in assay [3], “no binding (tested: not printed)”.
